Here are results for 3 molecules from patent publication US20230042465A1 (Janssen / Centocor, published 2023).

The target of experiment [1] is T1, recombinant human TNFα (human, UniProt P01375 77-233, 125I-labeled in the receptor binding assay).
T1 construct: also called huTNFα; tumor necrosis factor alpha
Kind of experiment: competition radioligand assay: mAb in hybridoma supernatant preincubated with 5 ng/ml 125I-TNFα, then 125I-TNFα bound to plate-coated p55-sf2 counted as cpm. The protocol:
The amount of TNFα that bound to the p55 receptor in the presence of the mAbs was determined after washing away the unbound material and counting using a gamma counter. […] Each sample was tested in duplicate. The results shown are representative of two independent experiments.
(§1) 50:l of p55-sf2 at 0.5:g/ml in PBS was added to Optiplates to coat the wells during a one-hour incubation at 37° C. Serial dilutions of the eight TNV cell supernatants were prepared in 96-well round-bottom plates using PBS/0.1% BSA as diluent. […] The mixture was preincubated for one hour at RT. The coated Optiplates were washed to remove unbound p55-sf2 and 50:l of the ¹²⁵I-TNFα/cell supernatant mixture was transferred to the Optiplates. After 2 hrs at RT, Optiplates were washed three times with PBS-Tween. 100:l of Microscint-20 was added and the cpm bound determined using the TopCount gamma counter.
A simple binding assay was done to determine whether the eight TNV mAbs contained in hybridoma cell supernatant were capable of blocking TNFα binding to receptor.

The target of experiment [2] is T1, recombinant human TNFα. Kind of experiment: cell-based or functional assay.
The target of experiment [3] is T1, recombinant human TNFα. Kind of experiment: inhibition of 125I-TNFα binding to plate-coated p55-sf2, hybridoma supernatant. How it is done:
as §1
A simple binding assay was done to determine whether the eight TNV mAbs contained in hybridoma cell supernatant were capable of blocking TNFα binding to receptor. The concentrations of the TNV mAbs in their respective cell supernatants were first determined by standard ELISA analysis for human IgG.

Another experiment concerns the target T2, human lymphotoxin (human, UniProt P01374 35-205, limits assumed).
T2 sequence (looked up): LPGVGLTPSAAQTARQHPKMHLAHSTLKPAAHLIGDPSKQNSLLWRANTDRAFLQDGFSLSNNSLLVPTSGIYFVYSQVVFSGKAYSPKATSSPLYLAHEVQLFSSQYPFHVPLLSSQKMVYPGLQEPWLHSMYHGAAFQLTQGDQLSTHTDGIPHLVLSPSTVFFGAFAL
Kind of experiment: not described.

B1: TNV148 (antibody, human IgG1, kappa, V domains shown)
VH: QVQLVESGGGVVQPGRSLRLSCAASGFIFSSYAMHWVRQAPGNGLEWVAFMSYDGSNKKYADSVKGRFTISRDNPKNTLYLQMNSLRAEDTAVYYCARDRGIAAGGNYYYYGMDVWGQGTTVTVSS
VL: EIVLTQSPATLSLSPGERATLSCRASQSVYSYLAWYQQKPGQAPRLLIYDASNRATGIPARFSGSGSGTDFTLTISSLEPEDFAVYYCQQRSNWPPFTFGPGTKVDIKR
notes: also called GenTNV148.26.12; C420A
On to B1, for which, in the experiment with recombinant human TNFα [1], the “IC50 (read off the curve)” value is about 4 ng/mL. Also, the “neutralizing TNFα bioactivity” value in the experiment with recombinant human TNFα [2] is 4 fold. In addition, the “fold better at blocking TNF binding than TNV118 and TNV14” value in the experiment with recombinant human TNFα [3] was about 4 fold.

B2: TNV86 (antibody, V domains shown)
VH: QVQLVESGGGVVQPGRSLRLSCAASGFIFSSYAMHWVRQAPGNGLEWVAFMSYDGSNKKYADSVKGRFTISRDNPKNTLYLQMNSLRAEDTAVYYCARDRGIAAGGNYYYYGMDVWGQGTTVTVSS
VL: EIVLTQSPATLSLSPGERATLSCRASQSVYSYLAWYQQKPGQAPRLLIYDASNRATGIPARFSGSGSGTDFTLTISSLEPEDFAVYYCQQRSNWPPFTFGPGTKVDIKR
notes: Hybridoma IgG1 kappa; also called GenTNV86.14.34; C417A
As to B2, in the experiment with recombinant human TNFα [3], the “fold better at blocking TNF binding than TNV118 and TNV14” value is about 4 fold.

B3: golimumab (SIMPONI) (antibody, human IgG1, kappa, V domains shown)
VH: QVQLVESGGGVVQPGRSLRLSCAASGFIFSSYAMHWVRQAPGNGLEWVAFMSYDGSNKKYADSVKGRFTISRDNSKNTLYLQMNSLRAEDTAVYYCARDRGIAAGGNYYYYGMDVWGQGTTVTVSS
VL: EIVLTQSPATLSLSPGERATLSCRASQSVYSYLAWYQQKPGQAPRLLIYDASNRATGIPARFSGSGSGTDFTLTISSLEPEDFAVYYCQQRSNWPPFTFGPGTKVDIKR
modifications: N-glycosylated on asparagine 306
notes: also called rTNV148B
Take B3: in the experiment with human lymphotoxin, the binding result is “no binding”.
